Each block holds one molecule with its values, some of them ahead of it.
Tests used:
[1] = molecular target: Native NGAL purchased from Diagnostics Development (Uppsala, Sweden), non-reduced (UniProt P80188); assay: … sandwich CMIA, capture HYB 211-01, detection acridinium-HYB 211-02; NGAL 50 ng/mL
[2] = molecular target: Wild-type recombinant human NGAL dimer calibrators treated with DTT (human) (UniProt P80188); assay: as above
[3] = molecular target: Wild-type recombinant human NGAL dimer expressed in CHO cells (human) (UniProt P80188); assay: as above
[4] = molecular target: Wild-type recombinant human NGAL monomer expressed in CHO cells (human) (UniProt P80188); assay: as above
[5] = molecular target: Wild-type recombinant human NGAL dimer calibrators treated with DTT (human) (UniProt P80188); assay: … sandwich CMIA, capture HYB 211-01, detection acridinium-HYB 211-02; calibrator E, NGAL 600 ng/mL
[6] = molecular target: Wild-type recombinant human NGAL dimer expressed in CHO cells (human) (UniProt P80188); assay: as above
[7] = molecular target: Wild-type recombinant human NGAL monomer expressed in CHO cells (human) (UniProt P80188); assay: as above
[8] = molecular target: Wild-type recombinant human NGAL dimer calibrators treated with DTT (human) (UniProt P80188); assay: … sandwich CMIA, capture HYB 211-01, detection acridinium-HYB 211-02; curve fit with monomer calibrators; target 1000 ng/mL
[9] = molecular target: Wild-type recombinant human NGAL dimer expressed in CHO cells (human) (UniProt P80188); assay: as above
[10] = molecular target: Wild-type recombinant human NGAL monomer expressed in CHO cells (human) (UniProt P80188); assay: as above
[11] = molecular target: Wild-type recombinant human NGAL dimer calibrators treated with DTT (human) (UniProt P80188); assay: … sandwich CMIA, capture HYB 211-01, detection acridinium-HYB 211-02; calibrator F, NGAL 1000 ng/mL
[12] = molecular target: Wild-type recombinant human NGAL dimer expressed in CHO cells (human) (UniProt P80188); assay: as above
[13] = molecular target: Wild-type recombinant human NGAL dimer calibrators treated with DTT (human) (UniProt P80188); assay: … sandwich CMIA, capture HYB 211-01, detection acridinium-HYB 211-02; curve fit with monomer calibrators; target 250 ng/mL
[14] = molecular target: Wild-type recombinant human NGAL dimer expressed in CHO cells (human) (UniProt P80188); assay: as above
[15] = molecular target: Wild-type recombinant human NGAL monomer expressed in CHO cells (human) (UniProt P80188); assay: as above
[16] = molecular target: Wild-type recombinant human NGAL dimer calibrators with TCEP in the reaction mixture (human) (UniProt P80188); assay: … sandwich CMIA, capture 1-2322-455, detection acridinium-1-903-430; TCEP in reaction; curve fit with monomer calibrators; target 600 ng/mL
[17] = molecular target: Wild-type recombinant human NGAL monomer expressed in CHO cells (human) (UniProt P80188); assay: … sandwich CMIA, capture 1-2322-455, detection acridinium-1-903-430; curve fit with monomer calibrators; target 5 ng/mL
[18] = molecular target: Wild-type recombinant human NGAL monomer expressed in CHO cells (human) (UniProt P80188); assay: … sandwich CMIA, capture 1-2322-455, detection acridinium-1-903-430; monomer calibrator plus TCEP; NGAL 250 ng/mL
[19] = molecular target: Wild-type recombinant human NGAL dimer expressed in CHO cells (human) (UniProt P80188); assay: … sandwich CMIA, capture 1-2322-455, detection acridinium-1-903-430; curve fit with monomer calibrators; target 600 ng/mL
[20] = molecular target: Wild-type recombinant human NGAL monomer expressed in CHO cells (human) (UniProt P80188); assay: as above
[21] = molecular target: Wild-type recombinant human NGAL monomer expressed in CHO cells (human) (UniProt P80188); assay: … sandwich CMIA, capture 1-2322-455, detection acridinium-1-903-430; monomer calibrator plus TCEP; NGAL 50 ng/mL
[22] = molecular target: Wild-type recombinant human NGAL dimer expressed in CHO cells (human) (UniProt P80188); assay: … sandwich CMIA, capture 1-2322-455, detection acridinium-1-903-430; NGAL 5 ng/mL
[23] = molecular target: Wild-type recombinant human NGAL monomer expressed in CHO cells (human) (UniProt P80188); assay: as above
[24] = molecular target: Wild-type recombinant human NGAL dimer calibrators with TCEP in the reaction mixture (human) (UniProt P80188); assay: … sandwich CMIA, capture 1-2322-455, detection acridinium-1-903-430; TCEP in reaction; curve fit with monomer calibrators; target 1000 ng/mL
[25] = molecular target: Wild-type recombinant human NGAL dimer calibrators with TCEP in the reaction mixture (human) (UniProt P80188); assay: … sandwich CMIA, capture 1-2322-455, detection acridinium-1-903-430; TCEP in reaction; curve fit with monomer calibrators; target 5 ng/mL

RLUs [1]: 151000 RLUs | RLUs [2]: 101000 RLUs | RLUs [3]: 31500 RLUs | RLUs [4]: 101000 RLUs | RLUs [5]: 676000 RLUs | RLUs [6]: 282000 RLUs | RLUs [7]: 691000 RLUs | Curve Fit Results [8]: 924 ng/mL | Curve Fit Results [9]: 245 ng/mL | Curve Fit Results [10]: 1000 ng/mL | RLUs [11]: 855000 RLUs | RLUs [12]: 390000 RLUs | Curve Fit Results [13]: 236 ng/mL | Curve Fit Results [14]: 71.8 ng/mL | Curve Fit Results [15]: 251 ng/mL
Molecule: anti-NGAL antibody HYB 211-01 from AntibodyShop A/S, Gentofte, Denmark

Curve Fit Results [16]: 292 ng/mL | Curve Fit Results [17]: 4.7 ng/mL | RLUs [18]: 928000 RLUs | Curve Fit Results [19]: 173 ng/mL | Curve Fit Results [20]: 591 ng/mL | RLUs [21]: 241000 RLUs | RLUs [22]: 9120 RLUs | RLUs [23]: 29300 RLUs | Curve Fit Results [24]: 497 ng/mL | Curve Fit Results [25]: 2.2 ng/mL
B1: antibody produced by murine hybridoma cell line 1-2322-455 having ATCC Accession No. PTA-8024 (antibody, V domains shown)
VH: EVQLVESGGGLVQPGGSLKLSCAASGFTFNNYYMSWVRQTPERRLEWVAYISSSGGSTYYSDSVRGRFTISRDTARNTLYLQMTSLKSEDTAMYYCARHFGDYSYFDYWGQGTTLTVSS
VL: DIQMTQSPASLSASVGETVTITCRASENFYSYLAWYQQKQGKSPQLLVYNAKTLAEGVPSRFSGSGSGTQFSLKINSLQPEDFGTYYCQHHYDIPLTFGAGTKLELKR
